Here are results for 83 variants from the RNAGym collection of RNA variant scans (doi:10.1073/pnas.2313332121).

Variants at the floor of the assay were thinned out.

B1: TPR 5TU (parent)
chain: GGAUCUUCUCGAUCUAACAAAAAAGACAAAUCUGCCACAAAGCUUGAGAGCAUCUUCGGAUGCAGAGGCGGCAGCCUUCGGUGGCGCGAUAGCGCCAACGUUCUCAACUAUGACACGCAAAACGCGUGCUCCGUUGAAUGGAGUUUAUCAUG

Variants of B1 are the subject of this series. The experiment in a line: polymerase ribozyme fitness, log enrichment relative to wild type (log ratio); higher = more active; in vitro selection for triplet polymerase activity. In short, it runs like this:
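A heterodimeric triplet polymerase ribozyme had each of its subunits mutagenized by PCR into a library, which was transcribed. One round of in vitro selection, done in triplicate, annealed each library with a biotinylated primer, its partner subunit and triplets, then incubated it frozen at −7 °C before gel excision of extended constructs, streptavidin-bead capture and RT-PCR. Fitness is the logarithm of genotype enrichment relative to wild-type enrichment, based on Illumina sequencing of inputs and outputs and inverse-variance-weighted replicate averages. A base-2 logarithm is used, and genotypes were kept only with ≥10 input reads and ≥1 read per output.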
As to U56A U101A, the “polymerase ribozyme fitness (log ratio)” value is -0.244.
Turning to U56G C76U A91G A122U C149G, the “polymerase ribozyme fitness (log ratio)” value is no more than -4.2.
To U56G C79U U90A A107U C114G belongs no more than -4.2; to U56C G67U A91C A97U C123A, no more than -4.2.
As for U56G A73G C87A G94U C118U, the figure is no more than -4.2; as for C57A G65A G84U A120G, -3.08; as for U56G G59C C85G U135A, -2.51.
For U56G G81U A91G, the “polymerase ribozyme fitness (log ratio)” value is -3.38.
To U56C U109A belongs -1.87; to C57G A89U A98U, -1.18; to U56G C85A C95A, -1.74.
As for U56A U82C C93U, the “polymerase ribozyme fitness (log ratio)” value was -1.41.
To C57G A91G A147C belongs -3.13.
As for C57A G58A, the figure is 1.15.
As for C57A G58U, the figure is 0.207; as for C57A U78G A97G G117A A122G, no more than -4.2.
Consider U56C C57U A89U C95G A137C, for which the “polymerase ribozyme fitness (log ratio)” value is -4.07.
As for U56A U127A A138C A142G, the figure is -3.48.
As for C57A U127A, the figure is -3.56; as for C57A G86A U146G, -1.4.
On to U56C G59A G92U U135A, for which the “polymerase ribozyme fitness (log ratio)” value is -2.19.
For the variant C57A G133U, the “polymerase ribozyme fitness (log ratio)” value is -3.13.
Regarding U56G G84U A97U C99G G133U, the “polymerase ribozyme fitness (log ratio)” value was no more than -4.2.
On to C57A C76U, for which the “polymerase ribozyme fitness (log ratio)” value is 0.264.
As for U56C G143U, the figure is -2.95; as for U56G G100U U134A U146A U148A, no more than -4.2; as for U56G C93U A110U, -3.71.
To U56G C103A A122U U146A belongs -2.78.
To C57A A113U belongs -1.86; to C57A, -0.00233; to C57G, -0.448.
For C57A C76U C85U G92C G126C, the “polymerase ribozyme fitness (log ratio)” value is -2.15.
To C57A A89C G94U A142G belongs -3.19; to C57A G59C G84U A107G A115U A137G C149U, no more than -4.2; to C57G C75U C108A A110G, no more than -4.2.
As for C57A C87A C116G U127A C129U A137G C149U, the figure is no more than -4.2.
Take U56A U146A U148C: the “polymerase ribozyme fitness (log ratio)” value is -2.96.
As to C57A A60G G74U, the “polymerase ribozyme fitness (log ratio)” value is -4.12.
For the variant U56G C76A U77C C93G C105A U109G, the “polymerase ribozyme fitness (log ratio)” value is no more than -4.2.
As for C57A G58A C79U G88U, the figure is no more than -4.2.
Regarding U56C U82G, the “polymerase ribozyme fitness (log ratio)” value was -0.541.
As for U56G U78C C85A C123U, the figure is -1.43; as for U56C U109A U127C, -3.65; as for U56G A150C, -3.51.
With U56G G68C C85A C114A, the “polymerase ribozyme fitness (log ratio)” value is no more than -4.2.
As for U56A U109C, the figure is -3.5; as for U56A U102G, -2.4; as for U56G G71C C85U C116A, no more than -4.2.
To U56G C114U belongs -1.85; to U56G C63U C93G, -3.47.
To C57A G70A G86U C96A C99U U134C U146C belongs no more than -4.2; to U56G A60G C99U U102A, -2.07; to C57A C85G, -1.75.
Turning to C57A C85A, the “polymerase ribozyme fitness (log ratio)” value is -1.28.
On to C57A C85U, for which the “polymerase ribozyme fitness (log ratio)” value was -0.0999.
To U56G G58C C99G belongs -2.63.
As for U56G G68U G92A C93A A106U A115U A150C, the figure is no more than -4.2.
As for C57A G92U, the figure is -0.638; as for C57A A113C A119U, -1.37; as for U56A U104G A115C A142C, no more than -4.2.
Regarding C57G A121U U135C, the “polymerase ribozyme fitness (log ratio)” value was -2.26.
As for C57A U104G A120U, the figure is -0.824; as for U56C U78G G80A G84C, no more than -4.2; as for U56G C93U A107G A120U, -4.12.
Take C57G C79U: the “polymerase ribozyme fitness (log ratio)” value is -2.13.
C57A A138C: the “polymerase ribozyme fitness (log ratio)” value was -3.77.
In the case of C57A G86U C123U C125U, the “polymerase ribozyme fitness (log ratio)” value was -0.745.
As for U56A U148G, the figure is -3.6; as for C57A A64G A66G C118U A147C G152U, no more than -4.2.
To C57A G59U U77A C99G belongs no more than -4.2; to C57G A91G, -4.08; to U56C G58A G84A U145G, 0.113.
As for C57A G74U C85A U130G, the figure is no more than -4.2; as for U56A U78G G92A U144A, no more than -4.2.
Take U56C G81U G92U C108G: the “polymerase ribozyme fitness (log ratio)” value was no more than -4.2.
Consider C57A C105U, for which the “polymerase ribozyme fitness (log ratio)” value was determined as 1.29.
As for C57A C72U A150U, the figure is -0.157; as for U56C C108U, -4.01.
To C57A G80C A137C G143U belongs no more than -4.2.
As for C57G A91G G100A C123A C131A, the figure is no more than -4.2; as for U56G U78G C79U G86A C87G C95A A115U G152C, no more than -4.2.
With U56G C87A C103U C114U C125U, the “polymerase ribozyme fitness (log ratio)” value is no more than -4.2.
On to U56A U130A A147C, for which the “polymerase ribozyme fitness (log ratio)” value is -3.18.
